According to US20100254992A1:

Legend:
[1] = target: Human Monocyte Chemoattractant Protein-1 (MCP-1) (human) (UniProt P13500); experiment: IGEN (BioVeris), MCP-1 Kd
[2] = target: Human Monocyte Chemoattractant Protein-1 (MCP-1) (human) (UniProt P13500); experiment: cell-based or functional assay
[3] = target: Human Monocyte Chemoattractant Protein-1 (MCP-1) (human) (UniProt P13500); experiment: 125I-MCP-1 binding to CCR2 on THP-1 cells, radioligand competition
[4] = target: HuMCP-1-His6 Mutant-6 (66D → 66K) (human) (UniProt P13500); experiment: Biacore
Sequence of HuMCP-1-His6 Mutant-6 (66D → 66K) (human) (P13500 other isoform, or with tags, fused parts or gaps mutant, form in doubt): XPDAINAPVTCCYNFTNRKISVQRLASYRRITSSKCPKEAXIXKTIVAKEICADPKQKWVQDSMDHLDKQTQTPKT

[5] = target: HuMCP-1-His6 (wild type) (human) (UniProt P13500); experiment: Biacore
Sequence of HuMCP-1-His6 (wild type) (human) (P13500 24-99 limits assumed): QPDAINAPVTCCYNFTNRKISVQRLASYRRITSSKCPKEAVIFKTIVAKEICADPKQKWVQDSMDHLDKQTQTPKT

[6] = target: HuMCP-1-His6 Mutant-Y13A (human) (UniProt P13500); experiment: Biacore, C775 captured, MCP-1-His6 in solution
Sequence of HuMCP-1-His6 Mutant-Y13A (human) (P13500 24-99 Y36A limits assumed): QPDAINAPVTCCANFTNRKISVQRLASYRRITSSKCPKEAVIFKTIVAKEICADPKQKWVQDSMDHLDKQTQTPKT

[7] = target: HuMCP-1-His6 Mutant-7 (4AINA7 → 4SVSI7) (human) (UniProt P13500); experiment: Biacore, C775 captured, MCP-1-His6 in solution
Sequence of HuMCP-1-His6 Mutant-7 (4AINA7 → 4SVSI7) (human) (P13500 other isoform, or with tags, fused parts or gaps mutant limits assumed): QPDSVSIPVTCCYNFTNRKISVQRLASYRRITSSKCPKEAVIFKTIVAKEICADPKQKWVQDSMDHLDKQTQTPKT

[8] = target: HuMCP-1-His6 Mutant-6 (66D → 66K) (human) (UniProt P13500); experiment: Biacore, C775 captured, MCP-1-His6 in solution
[9] = target: HuMCP-1-His6 Mutant-8 (4AINA7 → 4GGGG7) (human) (UniProt P13500); experiment: Biacore, C775 captured, MCP-1-His6 in solution
Sequence of HuMCP-1-His6 Mutant-8 (4AINA7 → 4GGGG7) (human) (P13500 other isoform, or with tags, fused parts or gaps mutant limits assumed): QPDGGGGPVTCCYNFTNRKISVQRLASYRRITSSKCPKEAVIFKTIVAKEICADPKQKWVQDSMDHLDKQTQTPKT

[10] = target: HuMCP-1-His6 Mutant-P8A (human) (UniProt P13500); experiment: Biacore, C775 captured, MCP-1-His6 in solution
Sequence of HuMCP-1-His6 Mutant-P8A (human) (P13500 other isoform, or with tags, fused parts or gaps limits assumed, stated change not applied): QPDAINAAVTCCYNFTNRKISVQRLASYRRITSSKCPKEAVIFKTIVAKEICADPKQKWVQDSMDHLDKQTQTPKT

[11] = target: HuMCP-1-His6 Mutant-3 (15FT16 → 15VI16) (human) (UniProt P13500); experiment: Biacore, C775 captured, MCP-1-His6 in solution
Sequence of HuMCP-1-His6 Mutant-3 (15FT16 → 15VI16) (human) (P13500 other isoform, or with tags, fused parts or gaps mutant limits assumed): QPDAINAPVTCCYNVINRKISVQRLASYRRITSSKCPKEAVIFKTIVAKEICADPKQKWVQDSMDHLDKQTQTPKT

[12] = target: HuMCP-1-His6 (wild type) (human) (UniProt P13500); experiment: Biacore, C775 captured, MCP-1-His6 in solution
[13] = target: HuMCP-1-His6 Mutant-1 (33SSK35 → 33NIQ35) (human) (UniProt P13500); experiment: Biacore, C775 captured, MCP-1-His6 in solution
Sequence of HuMCP-1-His6 Mutant-1 (33SSK35 → 33NIQ35) (human) (P13500 other isoform, or with tags, fused parts or gaps mutant limits assumed): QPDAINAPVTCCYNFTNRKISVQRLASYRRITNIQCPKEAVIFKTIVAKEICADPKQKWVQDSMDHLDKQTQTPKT

[14] = target: HuMCP-1-His6 Mutant-4 (29R → 29T) (human) (UniProt P13500); experiment: Biacore, C775 captured, MCP-1-His6 in solution
Sequence of HuMCP-1-His6 Mutant-4 (29R → 29T) (human) (P13500 other isoform, or with tags, fused parts or gaps mutant limits assumed): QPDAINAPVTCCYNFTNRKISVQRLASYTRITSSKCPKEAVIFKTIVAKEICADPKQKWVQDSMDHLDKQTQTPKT

[15] = target: HuMCP-1-His6 Mutant-9 (4AINA7 . . . 46IV47 → 4SVSI7 . . . 46KR47) (human); experiment: Biacore, C775 captured, MCP-1-His6 in solution
Sequence of HuMCP-1-His6 Mutant-9 (4AINA7 . . . 46IV47 → 4SVSI7 . . . 46KR47) (human) (chain, as listed by the source mutant limits assumed): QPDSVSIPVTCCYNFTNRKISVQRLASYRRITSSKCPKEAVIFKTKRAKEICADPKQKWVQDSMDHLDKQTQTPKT

[16] = target: HuMCP-1-His6 Mutant-2 (6NA7 → 6SI7) (human) (UniProt P13500); experiment: Biacore, C775 captured, MCP-1-His6 in solution
Sequence of HuMCP-1-His6 Mutant-2 (6NA7 → 6SI7) (human) (P13500 other isoform, or with tags, fused parts or gaps mutant limits assumed): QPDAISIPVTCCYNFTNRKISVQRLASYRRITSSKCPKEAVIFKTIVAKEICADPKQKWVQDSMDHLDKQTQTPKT

[17] = target: HuMCP-1-His6 Mutant-5 (46IV47 → 46KR47) (human) (UniProt P13500); experiment: Biacore, C775 captured, MCP-1-His6 in solution
Sequence of HuMCP-1-His6 Mutant-5 (46IV47 → 46KR47) (human) (P13500 other isoform, or with tags, fused parts or gaps mutant limits assumed): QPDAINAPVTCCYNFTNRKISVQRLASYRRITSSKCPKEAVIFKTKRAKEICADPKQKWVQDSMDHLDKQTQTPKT

Sequence of Human Monocyte Chemoattractant Protein-1 (MCP-1) (human) (P13500 24-99 limits assumed): as the sequence (P13500 24-99 limits assumed) above

B1: C775 Fab (reference Fab) (Fab, from another filing, V domains shown)
VH: QVQLKQSGAELVRPGASVKLSCKASGYTFTDYYINWVKQRPGQGLEWIARIYPGTGNTYYNENFKGKATLTAEKSSSTAYMQLSSLTSEDSAVYFCARSGSTVVGNYYGMDYWGQGTSVTVSS
VL: SIVMTQTPKFLLVSAGDRVSITCKASQSVSNDVAWYQQKPGQSPKLLIYYASNRYTGVPDRFTGSGYGTDFTFTISTVQAEDLAVYFCQQDYSSPWTFGGGTKLEIKR
Binder B1 has a Kd [1] of 65 nM, an Inhibition of Ca2+ Mobilization IC50 [2] of 71.5 nM and an IC50 [3] of 35.6 nM.

B2: C775 (murine anti-human MCP-1 antibody, IgG) (antibody, from another filing, V domains shown)
VH: QVQLKQSGAELVRPGASVKLSCKASGYTFTDYYINWVKQRPGQGLEWIARIYPGTGNTYYNENFKGKATLTAEKSSSTAYMQLSSLTSEDSAVYFCARSGSTVVGNYYGMDYWGQGTSVTVSS
VL: SIVMTQTPKFLLVSAGDRVSITCKASQSVSNDVAWYQQKPGQSPKLLIYYASNRYTGVPDRFTGSGYGTDFTFTISTVQAEDLAVYFCQQDYSSPWTFGGGTKLEIKR
With B2 the fold decrease in fold change in binding affinity against wild type MCP-1 [4] was 9 fold, the Kd [5] was 3 nM and the Inhibition of Ca2+ Mobilization IC50 [2] was 62.3 nM. It also gave a Kd [6] of 1.7 nM, a koff [6] of 0.003 s⁻¹ and a kon [6] of 1.79e+06 M⁻¹ s⁻¹. For the same binder, the Kd [7] was 4.5 nM, the koff [7] was 0.00327 s⁻¹ and the kon [7] was 720000 M⁻¹ s⁻¹. It also gave a Kd [8] of 27.7 nM, a koff [8] of 0.00541 s⁻¹ and a kon [8] of 195000 M⁻¹ s⁻¹. For the same binder, the Kd [9] was 5.5 nM, the koff [9] was 0.00947 s⁻¹ and the kon [9] was 1.73e+06 M⁻¹ s⁻¹. The Kd [10] was 2.6 nM, the koff [10] was 0.00448 s⁻¹ and the kon [10] was 1.75e+06 M⁻¹ s⁻¹. The Kd [11] was 4.5 nM, the koff [11] was 0.0074 s⁻¹ and the kon [11] was 1.66e+06 M⁻¹ s⁻¹. The Kd [12] was 3.1 nM, the koff [12] was 0.00503 s⁻¹ and the kon [12] was 1.64e+06 M⁻¹ s⁻¹. For the same binder, the Kd [13] was 2 nM, the koff [13] was 0.0034 s⁻¹ and the kon [13] was 1.6e+06 M⁻¹ s⁻¹. It also gave a Kd [14] of 3 nM, a koff [14] of 0.0027 s⁻¹ and a kon [14] of 880000 M⁻¹ s⁻¹. For the same binder, the Kd [15] was 1.7 nM, the koff [15] was 0.00531 s⁻¹ and the kon [15] was 3.16e+06 M⁻¹ s⁻¹. The Kd [16] was 6.3 nM, the koff [16] was 0.00548 s⁻¹ and the kon [16] was 868000 M⁻¹ s⁻¹. For the same binder, the Kd [17] was 1.7 nM, the koff [17] was 0.00278 s⁻¹ and the kon [17] was 1.64e+06 M⁻¹ s⁻¹. The IC50 [3] was 25.6 nM.
